Assay results: patent publication US9944954B2, “Glycerol 3-phosphate dehydrogenase for butanol production” (BUTAMAX ADVANCED BIOFUELS LLC, priority 2013, dated 2018)

Columns and labels:
[1] = test system: Saccharomyces phosphatase GPP1; conditions: Norbeck, JBC 271:13875-81 (1996); cited from earlier work
[2] = test system: Saccharomyces phosphatase GPP2; conditions: Norbeck, JBC 271:13875-81 (1996); cited from earlier work
[3] = test system: E. coli gpsA (glycerol-3-phosphate dehydrogenase); conditions: cited from earlier work; for affinity for the cofactors NADH and NADPH: Edgar and Bell, JBC 255:3492-7 (1980)
[4] = test system: NC(=O)C1=CN([C@@H]2O[C@H](COP(=O)(O)OP(=O)(O)OC[C@H]3O[C@@H](n4cnc5c(N)ncnc54)[C@H](O)[C@@H]3O)[C@@H](O)[C@H]2O)C=CC1; assay: cells, lysate or membranes named; conditions: pH 6.8; 30.0 °C
[5] = test system: NC(=O)C1=CN([C@@H]2O[C@H](COP(=O)(O)OP(=O)(O)OC[C@H]3O[C@@H](n4cnc5c(N)ncnc54)[C@H](OP(=O)(O)O)[C@@H]3O)[C@@H](O)[C@H]2O)C=CC1; assay: cells, lysate or membranes named; conditions: pH 6.8; 30.0 °C
[6] = test system: Saccharomyces cerevisiae GPD1; conditions: read-out: NADH KM; Albertyn et al. 1992; cited from earlier work
Leishmania mexicana GPD = conditions: read-out: NADH KM; Marche et al, 2000; cited from earlier work
Jaculus orientalis GPD = conditions: read-out: NADH KM; Berrada et al, 2002; cited from earlier work
Dunaliella viridis GPDH1 = conditions: read-out: NADH KM; He et al, 2009; cited from earlier work
Dunaliella viridis GPDH2 = conditions: read-out: NADH KM; He et al, 2009; cited from earlier work
[7] = test system: Drosophila melanogaster GPDH1 (flight muscle); conditions: read-out: NADH KM; Niesel et al, 1982; cited from earlier work
[8] = substrate: NC(=O)C1=CN([C@@H]2O[C@H](COP(=O)(O)OP(=O)(O)OC[C@H]3O[C@@H](n4cnc5c(N)ncnc54)[C@H](O)[C@@H]3O)[C@@H](O)[C@H]2O)C=CC1; assay: purified protein, by the assay type; conditions: pH 6.8, 30.0 °C
[9] = substrate: NC(=O)C1=CN([C@@H]2O[C@H](COP(=O)(O)OP(=O)(O)OC[C@H]3O[C@@H](n4cnc5c(N)ncnc54)[C@H](O)[C@@H]3O)[C@@H](O)[C@H]2O)C=CC1; assay: cells, lysate or membranes named; type: biochemical, Saccharomyces cerevisiae; conditions: E. coli expressed, 30.0 °C
Procedure: Glycerol-3-phosphate production was measured by LC/MS.
The data used in this section are provided in Table 11, and includes measurements of the metabolic products and the in vitro measurements of GPD as described above.

[10] = substrate: NC(=O)C1=CN([C@@H]2O[C@H](COP(=O)(O)OP(=O)(O)OC[C@H]3O[C@@H](n4cnc5c(N)ncnc54)[C@H](OP(=O)(O)O)[C@@H]3O)[C@@H](O)[C@H]2O)C=CC1; assay: purified protein, by the assay type; conditions: pH 6.8; 30.0 °C
[11] = substrate: NC(=O)C1=CN([C@@H]2O[C@H](COP(=O)(O)OP(=O)(O)OC[C@H]3O[C@@H](n4cnc5c(N)ncnc54)[C@H](O)[C@@H]3O)[C@@H](O)[C@H]2O)C=CC1; assay: cells, lysate or membranes named; conditions: pH 6.8; 30.0 °C; remark: listed apart in the source
[12] = substrate: NC(=O)C1=CN([C@@H]2O[C@H](COP(=O)(O)OP(=O)(O)OC[C@H]3O[C@@H](n4cnc5c(N)ncnc54)[C@H](OP(=O)(O)O)[C@@H]3O)[C@@H](O)[C@H]2O)C=CC1; assay: cells, lysate or membranes named; conditions: pH 6.8; 30.0 °C; remark: listed apart in the source
[13] = other: GPD1 WT_y, crude cell extract, pH 6.8, 1 mM dihydroxyacetone phosphate

In the case of `O=P(O)(O)OC[C@H](O)CO` [glycerol-3-phosphate], the Michaelis constant [1] is given as 3.1, the Michaelis constant [2] is given as 3.9 and the “product inhibition by glycerol-3-phosphate” value [3] is given as “product inhibited”.

Work on “Rickettsia prowazekii str. BuV67-CWPP GPD (gene SEQ ID NO: 16; SEQ ID NO: 192) (Rickettsia prowazekii str. Madrid E)” yielded a Km [4] of 664 µM and a Km [5] of 4 µM.

For `NC(=O)C1=CN([C@@H]2O[C@H](COP(=O)(O)OP(=O)(O)OC[C@H]3O[C@@H](n4cnc5c(N)ncnc54)[C@H](OP(=O)(O)O)[C@@H]3O)[C@@H](O)[C@H]2O)C=CC1` [NADPH, reduced nicotinamide adenine dinucleotide phosphate], the “affinity for the cofactors NADH and NADPH” value [3] is listed as “substantially the same affinity”.

In the case of `NC(=O)C1=CN([C@@H]2O[C@H](COP(=O)(O)OP(=O)(O)OC[C@H]3O[C@@H](n4cnc5c(N)ncnc54)[C@H](O)[C@@H]3O)[C@@H](O)[C@H]2O)C=CC1` [NADH, reduced nicotinamide adenine dinucleotide], the Km [6] is given as 23 µM, the Km (Leishmania mexicana GPD) is given as 24 µM and the Km (Jaculus orientalis GPD) is given as 32 µM. The Km (Dunaliella viridis GPDH1) was 58.9 µM, the Km (Dunaliella viridis GPDH2) was 59.2 µM and the Km [7] was 78 µM. For the same molecule, the “affinity for the cofactors NADH and NADPH” value [3] was “substantially the same affinity”.

B1: Drosophila melanogaster glycerol 3 phosphate dehydrogenase, isoform C (gi: 22945708) (Drosophila melanogaster) (protein)
chain: MADKVNVCIVGSGNWGSAIAKIVGANAAALPEFEERVTMFVYEELIDGKKLTEIINETHENVKYLKGHKLPPNVVAVPDLVEAAKNADILIFVVPHQFIPNFCKQLLGKIKPNAIAISLIKGFDKAEGGGIDLISHIITRHLKIPCAVLMGANLANEVAEGNFCETTIGCTDKKYGKVLRDLFQANHFRVVVVDDADAVEVCGALKNIVACGAGFVDGLKLGDNTKAAVIRLGLMEMIRFVDVFYPGSKLSTFFESCGVADLITTCYGGRNRRVSEAFVTSGKTIEELEKEMLNGQKLQGPPTAEEVNYMLKNKGLEDKFPLFTAIHKICTNQLKPNDLIDCIRNHPEHMDTSIMPSPKL
B1 gave a Km ([8]; other: one experiment, in parallel with Saccharomyces GPD1, E. coli expressed) of 5 µM.

B2: Saccharomyces cerevisiae GPD1 (glycerol-3-phosphate dehydrogenase), wild type, SEQ ID NO: 195 (Saccharomyces cerevisiae S288C) (protein)
chain: MSAAADRLNLTSGHLNAGRKRSSSSVSLKAAEKPFKVTVIGSGNWGTTIAKVVAENCKGYPEVFAPIVQMWVFEEEINGEKLTEIINTRHQNVKYLPGITLPDNLVANPDLIDSVKDVDIIVFNIPHQFLPRICSQLKGHVDSHVRAISCLKGFEVGAKGVQLLSSYITEELGIQCGALSGANIATEVAQEHWSETTVAYHIPKDFRGEGKDVDHKVLKALFHRPYFHVSVIEDVAGISICGALKNVVALGCGFVEGLGWGNNASAAIQRVGLGEIIRFGQMFFPESREETYYQESAGVADLITTCAGGRNVKVARLMATSGKDAWECEKELLNGQSAQGLITCKEVHEWLETCGSVEDFPLFEAVYQIVYNNYPMKNLPDMIEELDLHED
notes: also native or codon-optimized GPD1 in yeast PNY2145-derived strains (T12); full length 391 aa
Molecule B2 has a Km [9, 13] of 13 µM, a Vmax [9, 13] of 9000 µM/min and a Km ([9]; other: one experiment, in parallel with Drosophila isoform C, pH 6.8) of 5 µM.

B3: Beggiatoa alba GPD (SEQ ID NO: 17; SEQ ID NO: 193) (Beggiatoa alba B18LD) (protein)
chain: MLSPSALLVLGAGSWGTALALALARRQYPIYLWGKDPAHVHTLQIQRCNQRFLPNAVFPDNLYAITDFVTLMPIVEDIIIVVPSHGFRETLKKIKPYITKNHRLCWATKGLEYQTGLLLHEVARAELGDNIPLAVLSGPSFAGEVAAALPTAVTIAAQDIENAHHVAQLFHQASFRAYTSNDMVGVQIGGAVKNVIAIAAGIADGLKMGANTRAALITRGLSEIVRLGIALGGQRETFMGLAGLGDLVLTCTDNQSRNRRFGYALAQGISLEAAQAQVGQVVEGIHAATITHQLAQQHGVEMPIVNHVNQVLTGQSTPLEAAQALLAREPKPEML
In the case of B3, the Km [8] is reported as 101 µM and the Km [10] is reported as 6 µM.

B4: Archaeoglobus fulgidus DSM 4304 GPD (gene SEQ ID NO: 14) (Archaeoglobus fulgidus DSM 4304) (protein)
chain: MIVSILGAGAMGSALSVPLVDNGNEVRIWGTEFDTEILKSISAGREHPRLGVKLNGVEIFWPEQLEKCLENAEVVLLGVSTDGVLPVMSRILPYLKDQYIVLISKGLIDFDNSVLTVPEAVWRLKHDLRERTVAITGPAIAREVAKRMPTTVVFSSPSESSANKMKEIFETEYFGVEVTTDIIGTEITSALKNVYSIAIAWIRGYESRKNVEMSNAKGVIATRAINEMAELIEILGGDRETAFGLSGFGDLIATFRGGRNGMLGELLGKGLSIDEAMEELERRGVGVVEGYKTAEKAYRLSSKINADTKLLDSIYRVLYEGLKVEEVLFELATFK
B4 gave a Km [11] of 5 µM and a Km [12] of 7 µM.

B5: Kangiella koreensis GPD (SEQ ID NO: 18; SEQ ID NO: 194) (Kangiella koreensis DSM 16069) (protein)
chain: MSAQLSFAVLGAGSYGTALAVLLARNGHSVQLWARNSQHVVEMQQAKQNTKYLPDVAFPDNLSVTDQIDVALKHHPIILVAVPSHAFRDTLYLIKPLVNQDSKLVWASKGLDPDSGDLLGNVLKNILGDNMPHAILSGPTFAKEMAIGMPTAITLAANNDDFAEQLALALHNERFRVYTSDDIVGVQVGGAVKNVVAIGAGIADGLGYGANARTALITRGLAEMTRLGVAAGGKQETFNGMAGMGDLVLTCTDNQSRNRRFGLALGKGANRDEAEHAIGQVVEGVRNAKEVKMLAERLGVEMPISDAIYRIIYEGVDARQAAHELLTRDLKSEG
Molecule B5 has a Km [8] of 2018 µM and a Km [10] of 1 µM.
